According to publication PMC6813330:

Molecular target: IbpS (iron-binding protein secreted), translocated region of D. dadantii IbpS (residues 28-372) (Dickeya dadantii 3937)
Test: SEC-MALS; Superdex S200 5/150 GL increase; 25 µl IbpS at 10 mg/ml in 50 mM Tris-Cl pH 7.0, 100 mM NaCl

“IbpS (iron-binding protein secreted), translocated region of D. dadantii IbpS (residues 28-372) (natural protein)” was tested, and the stoichiometry N was 2.
